Measurements: the supplement of paper PMC10567573

B1: PKD2L1 (parent)
chain: TLARCAKDILGFAVMFFIVFFAYA

Variants of: B1
Test: protein stability index of a GFP-peptide fusion (GPS, HEK-293T) (PSI 1-6); higher = more stable
Details: c terminus: a fixed tail appended
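Note: lentivirally expressed fusions sorted by FACS into six bins by GFP to DsRed ratio, PSI derived from sequencing read proportions per bin multiplied by bin number.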

| Variant | protein stability index |
| --- | --- |
| TLARCAKIILGFAVMFFIVFFAYA | 2.56 |
| TLARCAKKILGFAVMFFIVFFAYA | 2.07 |
| TLARCAKLILGFAVMFFIVFFAYA | 2.47 |
| TLARCAKMILGFAVMFFIVFFAYA | 2.76 |
| TLARCAKNILGFAVMFFIVFFAYA | 1.91 |
| TLARCAKPILGFAVMFFIVFFAYA | 2.25 |
| TLARCAKQILGFAVMFFIVFFAYA | 1.51 |
| TLARCAKRILGFAVMFFIVFFAYA | 2.06 |
| TLARCAKSILGFAVMFFIVFFAYA | 1.98 |
| TLARCAKTILGFAVMFFIVFFAYA | 3.06 |
| TLARCAKVILGFAVMFFIVFFAYA | 2.33 |
| TLARCAKWILGFAVMFFIVFFAYA | 2.88 |
| TLARCAKYILGFAVMFFIVFFAYA | 2.7 |
| TLARCAKDALGFAVMFFIVFFAYA | 2.44 |
| TLARCAKDCLGFAVMFFIVFFAYA | 3.32 |
| TLARCAKDDLGFAVMFFIVFFAYA | 1.64 |
| TLARCAKDELGFAVMFFIVFFAYA | 1.46 |
| TLARCAKDFLGFAVMFFIVFFAYA | 3.86 |
| TLARCAKDGLGFAVMFFIVFFAYA | 2.66 |
| TLARCAKDHLGFAVMFFIVFFAYA | 2.46 |
| TLARCAKDKLGFAVMFFIVFFAYA | 1.22 |
| TLARCAKDLLGFAVMFFIVFFAYA | 1.58 |
| TLARCAKDMLGFAVMFFIVFFAYA | 3.48 |
| TLARCAKDNLGFAVMFFIVFFAYA | 1.69 |

| Variant | protein stability index |
| --- | --- |
| TLARCAKDPLGFAVMFFIVFFAYA | 1.93 |
| TLARCAKDQLGFAVMFFIVFFAYA | 1.84 |
| TLARCAKDRLGFAVMFFIVFFAYA | 1.74 |
| TLARCAKDSLGFAVMFFIVFFAYA | 2.6 |
| TLARCAKDTLGFAVMFFIVFFAYA | 1.58 |
| TLARCAKDVLGFAVMFFIVFFAYA | 2.24 |
| TLARCAKDWLGFAVMFFIVFFAYA | 2.43 |
| TLARCAKDYLGFAVMFFIVFFAYA | 1.94 |
| TLARCAKDIAGFAVMFFIVFFAYA | 2.38 |
| TLARCAKDICGFAVMFFIVFFAYA | 2.79 |
| TLARCAKDIFGFAVMFFIVFFAYA | 1.91 |
| TLARCAKDIGGFAVMFFIVFFAYA | 2.03 |
| TLARCAKDIHGFAVMFFIVFFAYA | 1.83 |
| TLARCAKDIIGFAVMFFIVFFAYA | 2.42 |
| TLARCAKDIMGFAVMFFIVFFAYA | 2.61 |
| TLARCAKDINGFAVMFFIVFFAYA | 1.82 |
| TLARCAKDIPGFAVMFFIVFFAYA | 3.1 |
| TLARCAKDIQGFAVMFFIVFFAYA | 3.08 |
| TLARCAKDIRGFAVMFFIVFFAYA | 2.54 |
| TLARCAKDISGFAVMFFIVFFAYA | 1.84 |
| TLARCAKDITGFAVMFFIVFFAYA | 3.28 |
| TLARCAKDIVGFAVMFFIVFFAYA | 2.92 |
| TLARCAKDIWGFAVMFFIVFFAYA | 2.49 |
| TLARCAKDIYGFAVMFFIVFFAYA | 2.38 |

| Variant | protein stability index |
| --- | --- |
| TLARCAKDILAFAVMFFIVFFAYA | 1.41 |
| TLARCAKDILCFAVMFFIVFFAYA | 2.06 |
| TLARCAKDILDFAVMFFIVFFAYA | 2.28 |
| TLARCAKDILEFAVMFFIVFFAYA | 3.51 |
| TLARCAKDILFFAVMFFIVFFAYA | 1.22 |
| TLARCAKDILHFAVMFFIVFFAYA | 3.32 |
| TLARCAKDILIFAVMFFIVFFAYA | 2.79 |
| TLARCAKDILKFAVMFFIVFFAYA | 3.33 |
| TLARCAKDILLFAVMFFIVFFAYA | 1.73 |
| TLARCAKDILMFAVMFFIVFFAYA | 1.48 |
| TLARCAKDILNFAVMFFIVFFAYA | 2.4 |
| TLARCAKDILPFAVMFFIVFFAYA | 1.81 |
| TLARCAKDILQFAVMFFIVFFAYA | 2.35 |
| TLARCAKDILRFAVMFFIVFFAYA | 2.72 |
| TLARCAKDILSFAVMFFIVFFAYA | 3.06 |
| TLARCAKDILTFAVMFFIVFFAYA | 3.47 |
| TLARCAKDILVFAVMFFIVFFAYA | 1.74 |
| TLARCAKDILWFAVMFFIVFFAYA | 1.06 |
| TLARCAKDILYFAVMFFIVFFAYA | 2.38 |
| TLARCAKDILGAAVMFFIVFFAYA | 1.42 |
| TLARCAKDILGCAVMFFIVFFAYA | 1.87 |
| TLARCAKDILGDAVMFFIVFFAYA | 2.24 |
| TLARCAKDILGEAVMFFIVFFAYA | 1.44 |
| TLARCAKDILGGAVMFFIVFFAYA | 2.56 |

| Variant | protein stability index |
| --- | --- |
| TLARCAKDILGHAVMFFIVFFAYA | 1.93 |
| TLARCAKDILGIAVMFFIVFFAYA | 1.49 |
| TLARCAKDILGKAVMFFIVFFAYA | 2.33 |
| TLARCAKDILGLAVMFFIVFFAYA | 3.16 |
| TLARCAKDILGNAVMFFIVFFAYA | 2.55 |
| TLARCAKDILGPAVMFFIVFFAYA | 2.87 |
| TLARCAKDILGQAVMFFIVFFAYA | 2.1 |
| TLARCAKDILGRAVMFFIVFFAYA | 2.02 |
| TLARCAKDILGSAVMFFIVFFAYA | 1.89 |
| TLARCAKDILGTAVMFFIVFFAYA | 1.89 |
| TLARCAKDILGVAVMFFIVFFAYA | 2.42 |
| TLARCAKDILGWAVMFFIVFFAYA | 3.56 |
| TLARCAKDILGYAVMFFIVFFAYA | 1.89 |
| TLARCAKDILGFCVMFFIVFFAYA | 2.25 |
| TLARCAKDILGFDVMFFIVFFAYA | 1.84 |
| TLARCAKDILGFEVMFFIVFFAYA | 2.82 |
| TLARCAKDILGFFVMFFIVFFAYA | 2.92 |
| TLARCAKDILGFGVMFFIVFFAYA | 2.06 |
| TLARCAKDILGFHVMFFIVFFAYA | 2.15 |
| TLARCAKDILGFIVMFFIVFFAYA | 1.52 |
| TLARCAKDILGFKVMFFIVFFAYA | 3.14 |
| TLARCAKDILGFLVMFFIVFFAYA | 2.63 |
| TLARCAKDILGFNVMFFIVFFAYA | 2.11 |
| TLARCAKDILGFPVMFFIVFFAYA | 1.65 |

| Variant | protein stability index |
| --- | --- |
| TLARCAKDILGFQVMFFIVFFAYA | 2.25 |
| TLARCAKDILGFRVMFFIVFFAYA | 3.17 |
| TLARCAKDILGFSVMFFIVFFAYA | 1.75 |
| TLARCAKDILGFYVMFFIVFFAYA | 2.65 |
| TLARCAKDILGFAAMFFIVFFAYA | 2.06 |
| TLARCAKDILGFACMFFIVFFAYA | 2.86 |
| TLARCAKDILGFADMFFIVFFAYA | 2.59 |
| TLARCAKDILGFAEMFFIVFFAYA | 2.48 |
| TLARCAKDILGFAFMFFIVFFAYA | 2.3 |
| TLARCAKDILGFAGMFFIVFFAYA | 1.9 |
| TLARCAKDILGFAHMFFIVFFAYA | 2.85 |
| TLARCAKDILGFAIMFFIVFFAYA | 1.86 |
| TLARCAKDILGFAKMFFIVFFAYA | 3.08 |
| TLARCAKDILGFALMFFIVFFAYA | 3.47 |
| TLARCAKDILGFAMMFFIVFFAYA | 1.61 |
| TLARCAKDILGFANMFFIVFFAYA | 3.15 |
| TLARCAKDILGFAPMFFIVFFAYA | 1.82 |
| TLARCAKDILGFAQMFFIVFFAYA | 2.46 |
| TLARCAKDILGFARMFFIVFFAYA | 2.82 |
| TLARCAKDILGFASMFFIVFFAYA | 2.61 |
| TLARCAKDILGFATMFFIVFFAYA | 2.07 |
| TLARCAKDILGFAYMFFIVFFAYA | 3.2 |
| TLARCAKDILGFAVAFFIVFFAYA | 2.27 |
| TLARCAKDILGFAVCFFIVFFAYA | 2.86 |

| Variant | protein stability index |
| --- | --- |
| TLARCAKDILGFAVDFFIVFFAYA | 2.89 |
| TLARCAKDILGFAVEFFIVFFAYA | 2.61 |
| TLARCAKDILGFAVFFFIVFFAYA | 2.54 |
| TLARCAKDILGFAVGFFIVFFAYA | 2.48 |
| TLARCAKDILGFAVHFFIVFFAYA | 2.17 |
| TLARCAKDILGFAVIFFIVFFAYA | 3.37 |
| TLARCAKDILGFAVKFFIVFFAYA | 2.58 |
| TLARCAKDILGFAVLFFIVFFAYA | 1.25 |
| TLARCAKDILGFAVNFFIVFFAYA | 1.32 |
| TLARCAKDILGFAVPFFIVFFAYA | 2.62 |
| TLARCAKDILGFAVQFFIVFFAYA | 3.41 |
| TLARCAKDILGFAVRFFIVFFAYA | 3.16 |
| TLARCAKDILGFAVSFFIVFFAYA | 1.33 |
| TLARCAKDILGFAVVFFIVFFAYA | 1.88 |
| TLARCAKDILGFAVWFFIVFFAYA | 2.5 |
| TLARCAKDILGFAVYFFIVFFAYA | 1.72 |
| TLARCAKDILGFAVMAFIVFFAYA | 2.21 |
| TLARCAKDILGFAVMCFIVFFAYA | 1.79 |
| TLARCAKDILGFAVMEFIVFFAYA | 3.1 |
| TLARCAKDILGFAVMGFIVFFAYA | 2.71 |
| TLARCAKDILGFAVMHFIVFFAYA | 2.28 |
| TLARCAKDILGFAVMIFIVFFAYA | 1.57 |
| TLARCAKDILGFAVMKFIVFFAYA | 4.35 |
| TLARCAKDILGFAVMLFIVFFAYA | 3.69 |

| Variant | protein stability index |
| --- | --- |
| TLARCAKDILGFAVMMFIVFFAYA | 2.98 |
| TLARCAKDILGFAVMNFIVFFAYA | 2.6 |
| TLARCAKDILGFAVMPFIVFFAYA | 1.96 |
| TLARCAKDILGFAVMQFIVFFAYA | 4.27 |
| TLARCAKDILGFAVMRFIVFFAYA | 3.37 |
| TLARCAKDILGFAVMSFIVFFAYA | 1.82 |
| TLARCAKDILGFAVMTFIVFFAYA | 2.41 |
| TLARCAKDILGFAVMVFIVFFAYA | 2.07 |
| TLARCAKDILGFAVMWFIVFFAYA | 3.32 |
| TLARCAKDILGFAVMYFIVFFAYA | 1.88 |
| TLARCAKDILGFAVMFAIVFFAYA | 1.79 |
| TLARCAKDILGFAVMFCIVFFAYA | 2.07 |
| TLARCAKDILGFAVMFDIVFFAYA | 3.23 |
| TLARCAKDILGFAVMFEIVFFAYA | 2.32 |
| TLARCAKDILGFAVMFGIVFFAYA | 2.44 |
| TLARCAKDILGFAVMFHIVFFAYA | 3.23 |
| TLARCAKDILGFAVMFIIVFFAYA | 2.44 |
| TLARCAKDILGFAVMFKIVFFAYA | 2.06 |
| TLARCAKDILGFAVMFMIVFFAYA | 1.84 |
| TLARCAKDILGFAVMFNIVFFAYA | 1.56 |
| TLARCAKDILGFAVMFQIVFFAYA | 1.98 |
| TLARCAKDILGFAVMFRIVFFAYA | 2.98 |
| TLARCAKDILGFAVMFSIVFFAYA | 2.03 |
| TLARCAKDILGFAVMFTIVFFAYA | 2.4 |

| Variant | protein stability index |
| --- | --- |
| TLARCAKDILGFAVMFVIVFFAYA | 2.44 |
| TLARCAKDILGFAVMFWIVFFAYA | 1.91 |
| TLARCAKDILGFAVMFYIVFFAYA | 2.37 |
| TLARCAKDILGFAVMFFAVFFAYA | 2.54 |
| TLARCAKDILGFAVMFFCVFFAYA | 2.29 |
| TLARCAKDILGFAVMFFDVFFAYA | 3.03 |
| TLARCAKDILGFAVMFFEVFFAYA | 2 |
| TLARCAKDILGFAVMFFFVFFAYA | 3.16 |
| TLARCAKDILGFAVMFFGVFFAYA | 2.09 |
| TLARCAKDILGFAVMFFHVFFAYA | 1.92 |
| TLARCAKDILGFAVMFFKVFFAYA | 1.71 |
| TLARCAKDILGFAVMFFMVFFAYA | 1.49 |
| TLARCAKDILGFAVMFFNVFFAYA | 1.6 |
| TLARCAKDILGFAVMFFPVFFAYA | 2.18 |
| TLARCAKDILGFAVMFFQVFFAYA | 1.54 |
| TLARCAKDILGFAVMFFRVFFAYA | 2.18 |
| TLARCAKDILGFAVMFFSVFFAYA | 1.72 |
| TLARCAKDILGFAVMFFTVFFAYA | 1.74 |
| TLARCAKDILGFAVMFFWVFFAYA | 3.5 |
| TLARCAKDILGFAVMFFYVFFAYA | 3.2 |
